Experiment in all cases: flow cytometry on cells; 5 × 10^6 CHO745 cells expressing the receptor or chimera incubated with 10 μg of Alexa fluorophore conjugated eE2 in 600 μL PBS at room temperature for 2 h, washed three times with PBS; read-out MFI of Alexa-647; one representative experiment of three
For test [1], the target named is scavenger receptor type B class I (SR-BI) (UniProt Q8WTV0).
The target in test [2] is hCD81 LEL-ceTSP9 backbone chimera (Caenorhabditis elegans | human) (UniProt P60033).
Test [3] deals with hCD81 LEL-hCD9 backbone chimera (human) (UniProt P60033).

From article PMC5923501 come the findings set out here.

Sequence of UniProt Q8WTV0 (Q8WTV0 whole entry): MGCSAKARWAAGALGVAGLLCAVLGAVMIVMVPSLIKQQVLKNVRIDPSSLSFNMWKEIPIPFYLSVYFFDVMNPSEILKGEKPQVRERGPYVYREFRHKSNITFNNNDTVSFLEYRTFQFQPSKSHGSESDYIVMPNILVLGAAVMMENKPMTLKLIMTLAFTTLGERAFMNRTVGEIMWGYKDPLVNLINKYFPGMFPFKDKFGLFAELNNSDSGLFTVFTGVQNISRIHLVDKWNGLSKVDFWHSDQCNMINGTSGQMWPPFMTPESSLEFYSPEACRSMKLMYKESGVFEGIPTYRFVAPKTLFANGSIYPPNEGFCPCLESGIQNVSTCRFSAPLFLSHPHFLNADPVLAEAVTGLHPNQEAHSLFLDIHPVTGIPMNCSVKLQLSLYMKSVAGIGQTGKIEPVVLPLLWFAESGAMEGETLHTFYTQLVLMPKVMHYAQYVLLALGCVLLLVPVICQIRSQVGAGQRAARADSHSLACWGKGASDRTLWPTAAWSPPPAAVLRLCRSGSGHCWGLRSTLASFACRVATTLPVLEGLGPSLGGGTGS

Consider “HCV E2 ectodomain (eE2) from genotype 2a (strain J6) (from UniProt P26660 384-729) (domain or fragment)”, for which the MFI in test [1] worked out at 65000; in test [2] it was 15000.
For ΔHVR1 J6 eE2 (domain or fragment), the fold change of binding against wildtype J6 eE2 in test [3] worked out at 3 fold.
As for “HCV E2 ectodomain (eE2) from genotype 1a (strain H77) (from UniProt P27958 384-725) (domain or fragment)”, the results for the MFI in test [1] and in test [2] were 22000 and 20000, respectively.
